Source: US20110237779A1 (Genentech, published 2011)

Tests used:
human tissue factor [1] = target: T1, human tissue factor (human, UniProt P13726 33-251, limits assumed); experiment: phage ELISA, solution competition: Fab-phage incubated with serially diluted TF, unbound phage captured on TF-coated wells; IC50 used as affinity estimate
T1 construct: construct not described; also called TF

human tissue factor [2] = target: T1, human tissue factor; experiment: phage ELISA, Fab on phage, competition with antigen in solution

B1: D3 direct hypervariable region graft on the acceptor human consensus framework (Fab displayed on phage) (Fab, V domains shown)
VH: EVQLVESGGGLVQPGGSLRLSCAASGFNIKDYYMHWVRQAPGKGLEWVGWIDPENGNTIYDPKFQDRFTISADTSKNTAYLQMNSLRAEDTAVYYCARDTAAYFDYWGQGTLVTVSS
VL: DIQMTQSPSSLSASVGDRVTITCKASRDIKSYLSWYQQKPGKAPKLLIYYATSLADGVPSRFSGSGSGTDFTLTISSLQPEDFATYYCLQHGESPFTFGQGTKVEIK
notes: Monovalent Fab-g3 phage display: light chain, and VH-CH1 followed by the minor phage coat protein P3; Kabat numbering; No framework changes; also called D3 grafted variant; D3 graft
Q: For B1, which IC50 (human tissue factor [1]) is on record?
A: 19 nM

Q: What about the IC50 (human tissue factor [2]) of the same binder?
A: 20 nM

B2: D3 library clone, CDR-L3 LSDGSSPFT (Fab, V domains shown)
VH: EVQLVESGGGLVQPGGSLRLSCAASGFNIKDYYMHWVRQAPGKGLEWVGWIDPENGNTIYDPKFQDRFTISADTSKNTAYLQMNSLRAEDTAVYYCARDTAAYFDYWGQGTLVTVSS
VL: DIQMTQSPSSLSASVGDRVTITCKASRDIKSYLSWYQQKPGKAPKLLIYYATSLADGVPSRFSGSGSGTDFTLTISSLQPEDFATYYCLSDGSSPFTFGQGTKVEIK
notes: Changes against the D3 direct graft (Kabat): VL Q90S, H91D, E93S; copies: 1 + 1
Q: For B2, which IC50 (human tissue factor [1]) is on record?
A: 15 nM
